Assay: soluble on expression in E. coli; label from the status in PepcDB or PDB records

Sequence | soluble on expression in E. coli
MEWAAKKTNSLTSSSERTWKANLLVPVEDPRELMGTFDFLRDITYPKGSVKLLGLAGNTDKENLLSQLPSISEGFQEEGVFSSWTIIDTAEFEENLVVGMEALTGSFFRPSILFLRLPENRDRDEEIREIIRKASMYRMGVLLFSKHPQAGLGRQNLINLWIENRGLDWDISMELGNMDLALLIAYKLKSNWKASLSFMTFAPTAIQAQAAENFLQSLAELARIPNVKMQVLRENPIKSSKLPFASLHIFSLDPNPDLDLARHLMEKAGSSCIFALDSGEENALALLEHHHHHH | soluble
MAHHHHHHMFKFVSSIGDAAYKAASKTGLAAGSEQPPYPCALPLQVIEDCEDTETTERVLNDTYAAVRDLLSDDLPLLHSTISDVQAHKPFKLVDFTDREGDIRLFTRPHVGSYNFARVTLTLDNVSPAKVLTFMHAQSLEARNRYSSNLCQYDVIARNPELPAQYIGNDNDHLEELCRMGIRDWHVEYNRYSAPPPVTARDFVYLVEKRYAPEQRCYYIYGTSVDYRDTAGIAIEKDNCVRGAVVFGWRFQHVGRKTYCTYVSCMSPNGWAPTFIVGWMKTAIAKELQNARRVLYQDVPSCHAAGASSEYAKGALAAYDAPITSCRQNKPTRDHSSSKSSAQKLGNAMEHEERRLLEDEKPIVFE | soluble
MSEALETGDPSPPPPIVSENGKTYYYLNSQESQAPNTPSPQEVPPKKMTNLFESGPLVYEDVAADIEAVTERASRRHYENKMVVKNSREMFDNVNILPDGRYYCCLCNRPYKTHATLTAHLRGYHLRNESSCDEPGCNFLSFTDQEKKRHRRTHDKKKKERNSQESMVIHEKIQKAVRRLDYPGEDELRDHLNGSTEVQGTIRTMTKKGKIRYACLKCPHSVFNAYHAARHVEMHNDFPKNCFYCGEIRKGTVDLQVHYMRVHKHEGIRTFKCSVCHLRFTTTILFRDHVECENGCQNPEIRQDIYYGELPEGTIVDDLTQDRLQNFRKRQEIWKTMGQMVEEHRTDVHEEIVGESSVQAGDTTVFDGSRAFIQTPFGLKTALEVKNTSRFCPRSGKRTSDDDLMITNKKRERLEMAPNLHFHQDIIHRLPTSTTTQRQNNAFQNEYLRPPVSYGYDPLIGRYPDFQLMSQSSLPSSSASSSSYDPFATAVYQDSDRNPMQPNDQHICDMNNVGAYETANFGLDNSSDLVVNEATIASNLMVNEVEDEVFEELNKLDFVMPADDGNDNDDDLEEVFNFGNVA | not soluble
MGSDKIHHHHHHMLMRDVIPQVLNRGTAMLTQDLLETPPQKTFHHAIDIYLKDSNAFMNTYFARYFEWQGICRERWFHECIHDNLLAAGGVFVTKRAHQEYVEETFPFQRVDCYLNTFQVKQCSAYLLFRFCVGGKPVSLGYQQIVFADRDKRISRFPHGIIERVKEYELVLPGLAS | not soluble
MSLYVVISPTGRTDGNIPARGYAGPSGRLDVIARAYNAILEPNATLAALLMGGPLPPRLLIAPLSCKDIVRSERSFMIEASRALRGRRSCFTVNDEGVEALASLLRRFKPRILLAEKGGDISSHWGEMCSSSPTFIAGSHLDPPHGLIKHLERSLGGFLRVSVGPLSLHTDHVFLLVSALRLPMHATSIEHH | not soluble
SMDPPPSETHKLVVVGGGGVGKSALTIQFIQSYFVSDYDPTIEDSYTKICSVDGIPARLDILDTAGQEEFGAMREQYMRAGHGFLLVFAINDRQSFNEVGKLFTQILRVKDRDDFPVVLVGNKADLESQRQVPRSEASAFGASHHVAYFEASAKLRLNVDEAFEQLVRAVRKYQEQELPPS | soluble
MKCSKCQAEAIYFAKYNGLYLCREHFNDMIEKRVKSEIRNQVDLKKPMVRISVAISGGKDSSVTLYLLHKILSKRRNVELTAFTVDEGISGYRPAGLESAIKLTKMLGVDHSIIRFQDSFGMTLDSIVGADASRIPCSYCGPLRRKLINEMAERQNADYVALGLNLDDYSQSILMNVAKGDYDRLLRMSPQKEAKDGLVRRIAPLRSVLEKEVVLYAVINGIPFDSSWCPYYSRAQRNIFREVVNTLSEYNPSTKFSILKFFERARSDVQRNDKALGRCRICGAPTENDVCSACAAMESLRNERKASESELHAR | not soluble
SNAMQRANREHLEIISLEEISMLVSSDFDLPEVLQHVTAKVATQLKVSVCNIYLREGDEVVLAATHGFDPAFIGKIRIKIGDGITGSVARDGQYISLSRASQDPRYRYFPELQEEKYNSMLSFPIGDKKEVYGVINLNTTSIRSFHEDEIYFVSIIANLILTAIKLRQQVASSRKAAEASA | soluble
MAHHHHHHMSHTFTDPLVDLASVSFQYPHGGGGSAGGIRDVSVRVNGGDRVLVVGHNGSGKSTLLSVIAGRRKASSGRATVLGSDAFDDTRLQQHVTLIGRPWPTEAFFATTVDQVTSQAPLPERKRSVADALHLDLGRAVSNMSSGERRRVQILHGLLQKSFVYLLDECSTDIDIAERMTVLDLVRSECVVGDSCCLYATHIFDGVSDWATHLLLMQGGMVVDFKRVSDLNAPLEVFVCHFLTRRHRGLFDHTSKRTPVKDAYNDDWKGGGTVTALPLEKEAVIVCDRLQYRNIFRNLSFTVYRGDRVLLCGCNGAGKSTLLKMMGGKQFFNNCNGSLRILGKSCYDDMTLNGLVAFGGEWWDTAPPGEMHVHEMLQLQTPRAEWLCKVLGVDLSWDVRHISTGEQKHVQLLLHLLEDKPVILLDEATSDLDLDQRQELLSFLYSESVNRGVTVVYATHIFGGLENWPTAVMMLDRTTQGLHAMWCGSDVKWAEVTRELIALK | not soluble
GAAEKTVVNISKVDGMPWFNRMGEGVVQAGKEFNLNASQVGPSSTDAPQQVKIIEDLIARKVDAITIVPNDANVLEPVFKKARDAGIVVLTNESPGQPSANWDVEIIDNEKFAAEYVEHMAKRMGGKGGYVIYVGSLTVPQHNLWADLLVKYQKEHYPDMHEVTRRMPVAESVDDSRRTTLDLMKTYPDLKAVVSFGSNGPIGAGRAVKEKRAKNKVAVYGMMIPSQAASLIKSGDITEGITYDPATAGYALAAVASTLLNGKTIEPGFELKELGKAEVDSDKHIIRFHKVLLVNKDNIDSLY | soluble
MGSDKIHHHHHHMSEPVIKSLLDTDMYKITMHAAVFTNFPDVTVTYKYTNRSSQLTFNKEAINWLKEQFSYLGNLRFTEEEIEYLKQEIPYLPSAYIKYISSSNYKLHPEEQISFTSEEIEGKPTHYKLKILVSGSWKDTILYEIPLLSLISEAYFKFVDIDWDYENQLEQAEKKAETLFDNGIRFSEFGTRRRRSLKAQDLIMQGIMKAVNGNPDRNKSLLLGTSNILFAKKYGVKPIGTVAHEWVMGVASISEDYLHANKNAMDCWINTFGAKNAGLALTDTFGTDDFLKSFRPPYSDAYVGVRQDSGDPVEYTKKISHHYHDVLKLPKFSKIICYSDSLNVEKAITYSHAAKENGMLATFGIGTNFTNDFRKKSEPQVKSEPLNIVIKLLEVNGNHAIKISDNLGKNMGDPATVKRVKEELGYTERSWSGDNEAHRWT | soluble
MKDLIKVQQKLIPDLIDKMYRRFYILSTISQNQPVGRRSLSEHMDMTERVLRSETDMLKKQELIRVKPTGMEITNEGTEVLAQLGEYFNVYSDDHKLASAIKDKFHIKDVHVIPGDSDSNRTVKREMGQQAGQLLEGILYEDAIVSVTGGSTMACVSESIHLLPFNVFFVPARGGLGENVVYQANTIASSMAQQAGGYYTTLYVPDNVSESTYDTLMLEPSVMHTLDKIKQANITIHGIGDALKMAHRRQSSQNVIDNLQHHQAVGEAFGYYFDAQGQIVHKVKTIGLQLEDLENKDFIFAVAGGQSKGEAIKAYLSIAPENTVLITDEAAAKVILQ | not soluble
QTNSPASIPHLILELLKCEPDEPQVQAKIMAYLQQEQSNRNRQEKLSAFGLLCKMADQTLFSIVEWARSSIFFRELKVDDQMKLLQNCWSELLILDHIYRQVAHGKEGTIFLVTGEHVDYSTIISHTEVAFNNLLSLAQELVVRLRSLQFDQREFVCLKFLVLFSSDVKNLENLQLVEGVQEQVNAALLDYTVCNYPQQTEKFGQLLLRLPELRAISKQAEDYLYYKHVNGDVPYNNLLIEMLHAKRA | soluble
MINQDFILSQVVGGSLDAVAREMSATVTRTARSPLFNEAHDFTTGVFDLSGKKSRLVAQAPGCTLHLYAVVGAVDHLLDAFRYDLHPGDILLVNDPYHGGSHSLDWTIVMPVFYNRKPILLPAVRSHMADNGGPVAGGYNPRSKDIWHDGLRIPPLKIYERGEKRRDVFDLIVANNRLSHWLEGDLNAMIGACKVAASRIQTMLDKYGAEKVITAIDNRIQYTENRVRDEISSWPDGTYVGETFADHDFQGNRDIKVRATVTVKGSDLHIDFTGSSPQVKGFINSPLSNTTSFAFVGISTCCDEDIPINEGYMNPVTVTAPIGTVVNPQLPAPCGHATACVGAEIAEAVLQAISQCAPKRVGVNAHKLPLAYSHGKYDDGKPWVNLNFYGYTGGAGAAYETDGWGLYPPVMTGVILPSIEMTEVQYPSRVLKHEYTSDFTGAGRWRGTPGLDVQIQHLKESRTSVMMAGGRNTTKGFCGAGDSPSNKVIVGYGTDEAREIDETAFEVKMPVGGIIQFYRAGGGGWGNPLEREPEKVLDD | not soluble
MYRFCVALTPSTSEDEQVVRKSEKPASKPPTPEVEDCTFSEKNNDQRKIEKETESEESSNLKFPPARPSIRNATNFRRIICISESDSGKEEPVVKKEVLKTNKLRISETKPEYPPELLQLEARLQELRAGRKNKQGRINRKFVAKPCGVVSGETPQRPFLEEMYYFNPQETGTASEIFDMLFPAKDTPNFRPWLDGHFSAPDLQFKQIEKQRQTKLHSYTGTTLQEKKRKKRKKILKSIQEILWLLHFQKHDDFLESTSRLTIKNFSCHFDEHQRLKLLRNNDLSLICNYQIGSENTPIFNQRSTDCMLRPVFIDGLSFMDMLIPISSSLPIISTRSLLEILLNFILDGCQTVIYLPDYYNDTTNQKVDDSTIFQFLCNSKLIQFVDGRSRRAVERQVLLEAEKVHGVFVSSAEEFLTRNAIQCFPVINRYSKRLDEFLICTVFLVNNLPKKILAQDFVEESRVLKPEGSSSAVSSTTVLEESHQKISGAMEDSEDEPADPQTLKQEYLIKEECSEISEDSEEGAIVDVASSSGDLSENRDQKSENEEFEYSPHQLTLEQQTYLISSMAQLSIFHFQRYRQIRVFLMIIKRYVPELLPSFMQKTRMDDVAMAIQDIQNGKDLLYWPIFSKIDN | not soluble
MSANLPPAFKPIAHYIKIANENASRDPVIYYWSLLCMALGPVETTFDEISWKLLQTSIRLEKDHINDRDSLREYIDEPGGVVNNCQRAQNISMEIEQKNVSCEKLREKIAKINQKILIGKGKLSEVNEELSKKQNFEESLKQKIEIMELQINKNQSKKDKEVKSINVLIRLVAYRKLTLIKEVMDLFKVKIDGGPASEAITTKNCQCQLIDTIRGLHIPQITHIFNHSEAPTLTALQNLTHLFNVICKVLHFAPKYPILTNLQIINPIDQKSSIFTEKCWKKKADREKLIEGMSWLSKNISHLRESCGIPTMATDRILGTLEEWIRLVIRKETVFERPINSIFSPANLLIDYQIPNISYHS | not soluble
MSLTNSSNLIDGIEVYVLNNPKDVKPHWVSHFIVPTANELLIKIKTKNGNSGFGVATSYTDIKPIIKPFTNGLQDLVIGEDPFCPEKIYDKIFKLTDTRMSSEKGWSREALIRISAALDIACWDLIGKAANIPLYKLFGGYRNQIPVYVTCAYYRDGKDEIELRDELKKLIDIGHQSFKVKVGGLSIKEDAKRLETIRNEIGNQKDLMIDVNRAWDLKTAIEGVKEFKKFNPIWIEEPVRWEDDRRNLKLLSKQTDIPLSGGESEITIHGCRSMIEEEAIQILQFDCTMFGGFTNGKKLSALCEINHIDIAPHHDCYIHAPLVASSPSGRIVESFDDERDPIQSELFENQHKMSNGWIYLNENPGLGFDISEAALKKFGKLVYKKEGHHHHHH | soluble
GKHTVPYTISVDGITALHRTYFVFPENKKVLYQEIDSKVKNELASQRGVTTEKINNAQTATYTLTLNDGNKKVVNLKKNDDAKNSIDPSTIKQIQIVVK | soluble

From the DeepSol protein solubility set
